Test results from PMC11982978, “Cancer hotspot mutations rewire ERK2 specificity by selective exclusion of docking interactions” (The Journal of Biological Chemistry, 2025).
Square brackets hold non-standard residues; d marks the D form. Ends that are not written are not given here.

molecular target: T1, Active phosphorylated His6-tagged ERK2 WT (rat (p-0033 says mouse), UniProt P63086 3-358, phosphorylated (active form; sites not given)); test: competitive peptide kinase assay; D-peptide titrated as competitive inhibitor of 10 nM ERK2 on 5 μM D-site dependent reporter peptide (AQT0376), 10 μM ATP; 54 mM HEPES pH 7.4, 1.2 mM DTT, 0.01% Brij-35, 1% glycerol, 0.2 mg/ml BSA, 10 mM MgCl2; fluorescence read-out; IC50 as relative binding affinity; settings: both partners purified
T1 construct: ERK2 (MAPK1); rat numbering; Same plasmid as the crystallised protein m9, but phosphorylated; also called WT ERK2; His6-ERK2; source: E. coli BL21(DE3), co-expressed with GST-MEK1ΔN3, purified (Talon resin)

Binder | IC50 [µM]
YAIRARRGLPRLAVSD (not fully specified, ISG20, human, residues 168-181; also called ISG20^WT; ISG20 peptide WT; source: synthetic peptide (GenScript)) [ISG20 D-peptide WT (competitive kinase assay form, with N-terminal Tyr-Ala)] | 5.4
[dY][dA][dI][dR][dA][dR][dR][dQ][dL][dP][dR][dL][dA][dV][dS][dD] (ISG20, human, residues 168-181 with the change; numbers count on: the 14-mer peptide (position 1 = Ile168); also called ISG20^G6Q; source: synthetic peptide (GenScript)) [ISG20 D-peptide G6Q] | 41

Other lines, results leading:

IC50 [µM] | Binder
190 | YANRARRGLPRLAVSD (not fully specified (some residues), ISG20, human, residues 168-181 with the change; numbers count on: the 14-mer peptide (position 1 = Ile168); also called ISG20^I1N; source: synthetic peptide (GenScript)) [ISG20 D-peptide I1N]
200 | YARIARRGLPRLAVSD (not fully specified (some residues), ISG20, human, residues 168-181 with the changes; numbers count on: the 14-mer peptide (position 1 = Ile168); also called ISG20^I1R/R2I; source: synthetic peptide (GenScript)) [ISG20 D-peptide I1R/R2I]
